Earlier results on 1 substance are cited in publication PMC5393932.

This data set addresses P-selectin (Homo sapiens) (UniProt P16109).
UniProt P16109, sequence (P16109 42-771): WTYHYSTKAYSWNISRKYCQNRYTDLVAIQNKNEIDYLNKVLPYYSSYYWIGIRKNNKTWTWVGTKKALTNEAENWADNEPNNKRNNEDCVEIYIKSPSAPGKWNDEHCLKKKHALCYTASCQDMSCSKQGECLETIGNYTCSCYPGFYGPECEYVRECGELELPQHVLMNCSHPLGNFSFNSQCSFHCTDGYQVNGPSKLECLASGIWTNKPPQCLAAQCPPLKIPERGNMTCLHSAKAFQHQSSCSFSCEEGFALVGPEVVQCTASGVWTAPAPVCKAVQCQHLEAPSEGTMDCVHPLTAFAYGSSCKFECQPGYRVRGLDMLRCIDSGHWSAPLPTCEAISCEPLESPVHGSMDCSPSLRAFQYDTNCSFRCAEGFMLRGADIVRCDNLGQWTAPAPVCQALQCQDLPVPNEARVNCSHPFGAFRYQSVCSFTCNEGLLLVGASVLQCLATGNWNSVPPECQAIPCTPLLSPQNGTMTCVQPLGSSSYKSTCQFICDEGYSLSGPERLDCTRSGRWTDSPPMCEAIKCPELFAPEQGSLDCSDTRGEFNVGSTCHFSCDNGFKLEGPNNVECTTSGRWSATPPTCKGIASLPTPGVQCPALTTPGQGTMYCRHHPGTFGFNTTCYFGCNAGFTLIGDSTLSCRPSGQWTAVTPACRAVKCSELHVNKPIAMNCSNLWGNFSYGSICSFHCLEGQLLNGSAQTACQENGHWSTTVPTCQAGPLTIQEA

As a reminder, the Kd is the equilibrium constant for the complex coming apart. Take PSGL-1 (from UniProt Q14242): the Kd is 70 nM.
